The text below walks through data of patent US20230203157A1 (published 2023).

For the test, the target named is T1, mouse PD-1 (mouse, UniProt Q02242 25-288).
T1 sequence (looked up): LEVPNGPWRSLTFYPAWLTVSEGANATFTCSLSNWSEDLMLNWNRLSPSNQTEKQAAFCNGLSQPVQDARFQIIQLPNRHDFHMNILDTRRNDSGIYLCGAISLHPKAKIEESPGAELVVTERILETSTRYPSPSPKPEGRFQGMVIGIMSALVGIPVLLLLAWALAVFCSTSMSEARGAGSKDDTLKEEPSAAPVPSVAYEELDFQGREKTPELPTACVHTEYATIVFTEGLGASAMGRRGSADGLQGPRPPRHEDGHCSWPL
Kind of test: cell-based or functional assay.

B1: LoSTIM 7 (bispecific antibody, mouse IgG2a, kappa)
heavy: DVALTQTPVAQPVTLGDQASISCRSSQSLVHSNGRTYLEWYLQKPGQSPQLLIYKVSNRFSGVPDRFIGSGSGSDFTLTISRVEPEDLGVYYCFQATHDPNTFGAGTKLELKGGGGSGGGGSGGGGSQVQLQQSGAELVKPGSSVKISCKASGYTFTSHFIHWIKQQPGNGLEWIGGIYPGDGDTEYNQQFNGKATLTADKSSSTAYMRLSSLTSEDSAVYFCATRVPSYWFFDFWGPGTMVTVSSGGGGAGGGGDVQLVESGGGLVQPGGSRKLSCAASGFTFSSFGMHWVRQAPEKGLEWVAYISSGSNTIYYADTVKGRFTISRDNPKNTLFLQMTSLRSEDTAMYYCALTTGSWFAYWGQGTLVTVSAAKTTAPSVYPLAPVCGDTTGSSVTLGCLVKGYFPEPVTLTWNSGSLSSGVHTFPAVLQSDLYTLSSSVTVTSSTWPSQSITCNVAHPASSTKVDKKIEPRGPTIKPCPPCKCPAPNLEGGPSVFIFPPKIKDVLMISLSPIVTCVVVDVSEDDPDVQISWFVNNVEVHTAQTQTHREDYNSTLRVVSALPIQHQDWMSGKAFACAVNNKDLPAPIERTISKPKGSVRAPQVYVLPPPEEEMTKKQVTLTCMVTDFMPEDIYVEWTNNGKTELNYKNTEPVLDSDGSYFMYSKLRVEKKNWVERNSYSCSVVHEGLHNHHTTKSFSRTPGK
light: DILLTQSPAILSVRPGERVSFSCRASQSLGTSIHWYQQRTDGSPRLLIKYASESISGIPSRFSGSGSGTDFTLSINSVESEDIADYYCQQSNSWPITFGAGTKLELKRADAAPTVSIFPPSSEQLTSGGASVVCFLNNFYPKDINVKWKIDGSERQNGVLNSWTDQDSKDSTYSMSSTLTLTKDEYERHNSYTCEATHKTSTSPIVKSFNRNEC
On to B1, for which the “proliferation by CFSE dilution; BALB/c CD8 T cells with allogeneic C57B6 BMDDC, 0.5 micromolar, 84 h” value is 63.6% and the “proliferation by CFSE dilution; OT-I CD8 T cells with SIINFEKL-pulsed C57B6 BMDDC, 0.5 micromolar, 72 h” value turned out to be 43.9%.

B2: LoSTIM 8 (bispecific antibody, mouse IgG2a, kappa)
heavy: DVQLVESGGGLVQPGGSRKLSCAASGFTFSSFGMHWVRQAPEKGLEWVAYISSGSNTIYYADTVKGRFTISRDNPKNTLFLQMTSLRSEDTAMYYCALTTGSWFAYWGQGTLVTVSAAKTTAPSVYPLAPVCGDTTGSSVTLGCLVKGYFPEPVTLTWNSGSLSSGVHTFPAVLQSDLYTLSSSVTVTSSTWPSQSITCNVAHPASSTKVDKKIEPRGPTIKPCPPCKCPAPNLEGGPSVFIFPPKIKDVLMISLSPIVTCVVVDVSEDDPDVQISWFVNNVEVHTAQTQTHREDYNSTLRVVSALPIQHQDWMSGKAFACAVNNKDLPAPIERTISKPKGSVRAPQVYVLPPPEEEMTKKQVTLTCMVTDFMPEDIYVEWTNNGKTELNYKNTEPVLDSDGSYFMYSKLRVEKKNWVERNSYSCSVVHEGLHNHHTTKSFSRTPGKGGGGAGGGGDVALTQTPVAQPVTLGDQASISCRSSQSLVHSNGRTYLEWYLQKPGQSPQLLIYKVSNRFSGVPDRFIGSGSGSDFTLTISRVEPEDLGVYYCFQATHDPNTFGAGTKLELKGGGGSGGGGSGGGGSQVQLQQSGAELVKPGSSVKISCKASGYTFTSHFIHWIKQQPGNGLEWIGGIYPGDGDTEYNQQFNGKATLTADKSSSTAYMRLSSLTSEDSAVYFCATRVPSYWFFDFWGPGTMVTVSS
light: B1 light
Regarding B2, the “proliferation by CFSE dilution; BALB/c CD8 T cells with allogeneic C57B6 BMDDC, 0.5 micromolar, 84 h” value was 69.1% and the “proliferation by CFSE dilution; OT-I CD8 T cells with SIINFEKL-pulsed C57B6 BMDDC, 0.5 micromolar, 72 h” value came out at 78.4%.

B3: LoSTIM 3 (bispecific antibody, mouse IgG2a, kappa)
heavy: DVALTQTPVAQPVTLGDQASISCRSSQSLVHSNGRTYLEWYLQKPGQSPQLLIYKVSNRFSGVPDRFIGSGSGSDFTLTISRVEPEDLGVYYCFQATHDPNTFGAGTKLELKGGGGSGGGGSGGGGSQVQLQQSGAELVKPGSSVKISCKASGYTFTSHFIHWIKQQPGNGLEWIGGIYPGDGDTEYNQQFNGKATLTADKSSSTAYMRLSSLTSEDSAVYFCATRVPSYWFFDFWGPGTMVTVSSGGGGAGGGGEVQVVETGGGLVQPGSSLKLSCESSGFTFSSTWMNWVRQAPGKGLEWVALVKDKYSNYEANYAESVKGRFIISRDDSKNRVYLQMNTLRDQDTATYHCTRSRGYKNWYFDFWGPGTMVTVSSAKTTAPSVYPLAPVCGDTTGSSVTLGCLVKGYFPEPVTLTWNSGSLSSGVHTFPAVLQSDLYTLSSSVTVTSSTWPSQSITCNVAHPASSTKVDKKIEPRGPTIKPCPPCKCPAPNLEGGPSVFIFPPKIKDVLMISLSPIVTCVVVDVSEDDPDVQISWFVNNVEVHTAQTQTHREDYNSTLRVVSALPIQHQDWMSGKAFACAVNNKDLPAPIERTISKPKGSVRAPQVYVLPPPEEEMTKKQVTLTCMVTDFMPEDIYVEWTNNGKTELNYKNTEPVLDSDGSYFMYSKLRVEKKNWVERNSYSCSVVHEGLHNHHTTKSFSRTPGK
light: DIQMTQSPPSLSASLGDKVTITCQASQNINNYIAWYQQKPGKAPGLLILYTSTLVSGTPSRFSGSGSGRDYSFSISNVESEDIASYYCLQYDNSPRTFGGGTKLELKRADAAPTVSIFPPSSEQLTSGGASVVCFLNNFYPKDINVKWKIDGSERQNGVLNSWTDQDSKDSTYSMSSTLTLTKDEYERHNSYTCEATHKTSTSPIVKSFNRNEC
As for B3, the “CD69 expression; OT-I CD8 T cells with SIINFEKL-pulsed BMDDC, 0.5 micromolar, 57 h” value was 61% and the “proliferation (CFSE dilution); OT-I CD8 T cells with SIINFEKL-pulsed BMDDC, 0.5 micromolar, 57 h” value was found to be 90.1%.

B4: LoSTIM 4 (bispecific antibody, mouse IgG2a, kappa)
heavy: EVQVVETGGGLVQPGSSLKLSCESSGFTFSSTWMNWVRQAPGKGLEWVALVKDKYSNYEANYAESVKGRFIISRDDSKNRVYLQMNTLRDQDTATYHCTRSRGYKNWYFDFWGPGTMVTVSSAKTTAPSVYPLAPVCGDTTGSSVTLGCLVKGYFPEPVTLTWNSGSLSSGVHTFPAVLQSDLYTLSSSVTVTSSTWPSQSITCNVAHPASSTKVDKKIEPRGPTIKPCPPCKCPAPNLEGGPSVFIFPPKIKDVLMISLSPIVTCVVVDVSEDDPDVQISWFVNNVEVHTAQTQTHREDYNSTLRVVSALPIQHQDWMSGKAFACAVNNKDLPAPIERTISKPKGSVRAPQVYVLPPPEEEMTKKQVTLTCMVTDFMPEDIYVEWTNNGKTELNYKNTEPVLDSDGSYFMYSKLRVEKKNWVERNSYSCSVVHEGLHNHHTTKSFSRTPGKGGGGAGGGGDVALTQTPVAQPVTLGDQASISCRSSQSLVHSNGRTYLEWYLQKPGQSPQLLIYKVSNRFSGVPDRFIGSGSGSDFTLTISRVEPEDLGVYYCFQATHDPNTFGAGTKLELKGGGGSGGGGSGGGGSQVQLQQSGAELVKPGSSVKISCKASGYTFTSHFIHWIKQQPGNGLEWIGGIYPGDGDTEYNQQFNGKATLTADKSSSTAYMRLSSLTSEDSAVYFCATRVPSYWFFDFWGPGTMVTVSS
light: B3 light
For the molecule B4, the “CD69 expression; OT-I CD8 T cells with SIINFEKL-pulsed BMDDC, 0.5 micromolar, 57 h” value was found to be 79% and the “proliferation (CFSE dilution); OT-I CD8 T cells with SIINFEKL-pulsed BMDDC, 0.5 micromolar, 57 h” value worked out at 96.1%.
